Test results published in the DeepSol protein solubility set.

Experiment: soluble on expression in E. coli; label from the status in PepcDB or PDB records

Sequence	soluble on expression in E. coli
MKRLLKEKEGIRLEFKEARTALPGNLFETICSMLNHDGGDIVLGVSDDGTVAGVEHAKMETMVSNLVNLSNNPQKLDPPFILFPQTYEIDGKWLIHIQVPSSSQVHKTSGIVFNRSNDGDFRVTQPQQIAEIYNRKRMHYTEGIIYPGLRFEDFKVDLFPKVRNLIRSNNPNHPWLALTDQQMLEKAGLWKRDINSTQEGYTLAAALLLGKDEVIQQLLPFFKIDALVRIEDIYRYDDREYIQTNLIEAYEQLMTFVGKHLPDKFYMEGDQRVSLRNKIFREIAANLIVHREYMNAYPCTFIIYSDRVETENANNPHGEGPIDPEHFAPFPKNPTIIKFFMQLGRVDELGSGILNVNRFIKEYANGGSSQFIEGNVFKMIIPVAGEKIEGAIEGAIEGAIEGAIEGATKKVKDKLAILLKAIAENEGKKVPDYVVITKIPRSSIERYIKQLREANLIDFRDKATLIGGYYLTSKMKQKLKEKSLEHHHHHH	not soluble
MGSDKIHHHHHHQMEERLGNTSQELQSLQVQNIKLAGSLQHVAEKLCRELYNKAGAHRCSPCTEQWKWHGDNCYQFYKDSKSWEDCKYFCLSENSTMLKINKQEDLEFAASQSYSEFFYSYWTGLLRPDSGKAWLWMDGTPFTSELFHIIIDVTSPRSRDCVAILNGMIFSKDCKELKRCVCERRAGMVKPE	not soluble
MRDPNKWAEVKKTLPLVGAGRSGGRFRHPSARGKLTVQYVNRVRHYYDLLVRLSEKKRSGPSGRGLEHHHHHH	not soluble
MARAIWKGAISFGLVHIPVALVSATTSNSVDFDWLDKRSMDPVGYKRINKVTGKEVTKENIVKGVLHEKDRYVVLSEEEIRSAHPKSTQTIDIFAFVDSQQIPLQNIDTPYFLTPDKRGEKVYALLRETLVDTQKVALANVVLHTREHLAAVMPLESALVMVILRWPADVRELDALELTEAVTDARLTKSERDMARRLVKDMSADWQPDQYHDTFQEKIMQLVQTKAGEGKIEDVETDPGEEERKSADVIDLTDLLRRSLAGKSSASKTRKPAAKDKVADKQSPKPKRPAVRKKTGKAS	not soluble
MAHHHHHHMALEIDIDNVISKLIEVRGTRPGKNVNLTENEIKILCLSSREIFLNQPILLELEAPIKICGDIHGQFYDLLRLFEYGGFPPDANYLFLGDYVDRGKQSLETICLLLAYKIKYPENFFLLRGNHECASINRIYGFYDECKRRYSVKLWKTFIDCFNCLPVAAIIDEKIFCMHGGLSPELNNMEQIRKITRPTDVPDNGLLCDLLWSDPEKEINGWGENDRGVSFTFGQDVVHNFLRKHELDLICRAHQVVEDGYEFFAKRQLVTLFSAPNYCGEFDNAGAMMSVDETLMCSFQILKPVEKKKAAN	not soluble
MNLKQAFIDNNSIRLGLSADTWQEAVRLAVQPLIDSKAVTSAYYDAIIASTEKYGPYYVLMPGMAMPHAEAGLGVNRNAFALITLTKPVTFSDGKEVSVLLTLAATDPSIHTTVAIPQIVALFELDNAIERLVACQSPKEVLEMVEESKDSPYLEGMDLNA	soluble
MGSSHHHHHHSSGLVPRGSHMEEDGGIIRRIQTRGEGYAKPNEGAIVEVALEGYYKDKLFDQRELRFEIGEGENLDLPYGLERAIQRMEKGEHSIVYLKPSYAFGSVGKEKFQIPPNAELKYELHLKSFEKAKESWEMNSEEKLEQSTIVKERGTVYFKEGKYKQALLQYKKIVSWLEYESSFSNEEAQKAQALRLASHLNLAMCHLKLQAFSAAIESCNKALELDSNNEKGLSRRGEAHLAVNDFELARADFQKVLQLYPNNKAAKTQLAVCQQRIRRQLAREKKLYANMFERLAEEENKAKAEASSGDHPTDTEMKEEQKSNTAGSQSQVETEA	soluble
MSLRRALIIDDEEAVLKIITHFIEMKDMPIKIVGKATSGDEAVDKIIGLEPDIVFIDIQMPIYNGLEVIEKTSHLSKKINFVVITAFNYFEYAQKALRLNVKDILLKPLDMKEFTKSVEKIIGYQYTNNDLLNEILEYINLNYSNDLKLNDCARLFLTNPSNISRIFKSNLNTTFISYLNHIRIEKSIELLENTTKSINEIAEIVGYNSLNNFYKNFKIEKGMTPKVYKLNTEGHHHHHH	not soluble
MDEEMLIPEEEYQKSGVHIGTQVKSSDMKPYIFKIRNDGLYILDVKKTNSKLIVAGKMLARFEPQDILVVAQRQYAFRPVAKFAEVTGATAITGRFNPGTLTNPSLKFYKEVKVIIVTDPLADVQAMKEAVKIGIPIIALCDANNKTDFVDLIIPTNNKGRRSLAVIYWLLAREILKNRGTITSYDQFKYTIDDFEAQI	not soluble
MKIATYNVRVDTEYDQDWQWSFRKEAVCQLINFHDWSLCCIQEVRPNQVRDLKAYTTFTCLSAEREGDGQGEGLAILYNEQKVQAIDTGYFWLSETPQQPSIHPEAGCPRIALWGLFKETTQNTPFLVINVHLDHISAHARLAGMTVILEELHDKIAQYPTLLMGDFNAESGEEVHQLVQKKFQDSKNLATHYGPRGTFQNFTYTKPWAELEEIDYIYVKGWQVQQTASLTDSIDGRFPSDHFPLEAEVCIEER	not soluble
MTGSQEDQPKIIIDQEQPKTLETEHQPEPSSSSPDQKKWGTHVMGAPAAPVAHPDNQQAAAWVAGDNQQTQYQPYVIYSPVEHPTTNNPLEPVIGMFHTWSRKAETVARNLWHNLKTGPSMSETAWGKVNLTAKAITKGGFESLFRQIFGTEPNETLKKTFACYLSTTTGPVAGTVYLSNARVAFCSDRPLYFTAPSGQESWSYYRVVVPLANVATVNPVVVKETPPEKYIQLTTVDGHDFWFMGFVNYEKATHHLLTSVSDFQTAHGSVSG	soluble
MATTAQKIKEVEDEMAKTQKNKATAKHLGMLKAKLAKLKRELITPTGGGGGGGLGFDVARTGIGTVGFIGFPSVGKSTLMTQLTGTRSEAAAYEFTTLTTVPGVLQYNGAKIQILDLPGIIEGAKDGRGRGKQVITVARTCNLIFIVLDVLKPMSHKRIIEEELEGFGIRLNKEPPNIVFKKKERGGINITNTVPLTHIDLDEIRAVCSEYRVNSADIAFRCDATIDDLIDVLEGNRVYIPALYVLNKIDSISIEELDLIDRIPNAVPICGNRGWNIDELKETMWDYLNLVRVYTRPRGLEPDYSEPVILRTGHSTVEDFCNNIHSSIKSQFKHAYVWGKSVPYPGMRVGLSHVLLDEDVVTIVKK	not soluble
MSDKNQIAARASLIEQLMSKRNFEDLGNHLTELETIYVTKEHLQETDVVRAVYRVLKNCPSVALKKKAKCLLSKWKAVYKQTHSKARNSPKLFPVRGNKEENSGPSHDPSQNETLGICSSNSLSSQDVAKLSEMIVPENRAIQLKPKEEHFGDGDPESTGKRSSELLDPTTPMRTKCIELLYAALTSSSTDQPKADLWQNFAREIEEHVFTLYSKNIKKYKTCIRSKVANLKNPRNSHLQQNLLSGTTSPREFAEMTVMEMANKELKQLRASYTESCIQEHYLPQVIDGTQTNKIKCRRCEKYNCKVTVIDRGTLFLPSWVRNSNPDEQMMTYVICNECGEQWYHSKWVCW	soluble
MNKHQKPVLTGQRFKTRKRDEKEKFEPTVFRDTLVQGLNEAGDDLEAVAKFLDSTGSRLDYRRYADTLFDILVAGSMLAPGGTRIDDGDKTKMTNHCVFSANEDHETIRNYAQVFNKLIRRYKYLEKAFEDEMKKLLLFLKAFSEAEQTKLAMLSGILLGNGTLPATILTSLFTDSLVKEGIAASFAVKLFKAWMAEKDANSVTSSLRKANLDKRLLELFPVNRQSVDHFAKYFTDAGLKELSDFLRVQQSLGTRKELQKELQERLSQECPIKEVVLYVKEEMKRNDLPETAVIGLLWTCIMNAVEWNKKEELVAEQALKHLKQYAPLLAVFSSQGQSELVLLQKVQEYCYDNIHFMKAFQKIVVLFYKADVLSEEAILKWYKEAHAAKGKSVFLDQMKKFVEWLQNAEEESESEGEES	soluble
MNICMRNGYEQFSLTSPGTSDLEIGGSFWKDEPDTKYLCLDSPVEQRQHQPPMAVCAGCRLEISDRYFLRVNPNLEFHAQCLKCVQCSRPLDENQTAFVKNGQTYCRDDYRRLFTTRCSRCHGDFDKTDLVMRAGPQNVFHLNCFACVACEKRLQTGEEFQIKNNSLYCRSDCRGLDNPDTSASVPDYSKLNNNNNNDNNNSSSNFDEDEWDEERSTLTSLDNNTSSPLGSPKSDGVRTPLFGHHNSGSGGSTSSCGKKKKDKQATRVRTVLNENQLKILRDCYSINSRPDATLKERLVEMTGLSARVIRVWFQNKRCKDKKRQIQITENRLNSEREEVLNRVRVNGIGPLMVQPATPHIDNTLGGPIDIQHFAQWNGTPPPPPPQYGNPMMFNSPSTFDVSVILAPVAPNVTSPSEALGPLGASVFPHFSPQHAPFTATSHDISSPAPCGE	not soluble
MSLNIQQQVNEMFSGMINVTSPGAYKTATRGVITGGSVVLRNRISTANLISITPPSAKGGCGGINLYSGSFSFINGEEFVALMRNVASNAAGIVSGFAFELALDAMDAQTGGVIRNLANKIQALNQMFSNSCQLASGLVTNAKKAYEESTDFKSAMTAFGSNVSSDFFTAKSTKEDSPANRIAASGKAVQCENTGNVLWCAMMKSGLQSQILFGSDENAEFIMSMVGSYNVSLTNDASGGKNFAAHPMPKLITGEGLKILVEGSTNLDVKVYQCDQDDPDCSEPNIRTLTSFKGLETRILEDLQNNGILERFANGTATAADGNRIAYLASSRVGVNLMKITQKAGAQSGYDYLNQFAKKIAADASMSLIYQLLGHTEKGLTSLNMADAGKVIEDLRATKGELMDEYRSYIEDAMQGKDADGQAEKMLQMAPVFDSGTLPQGTINDNAGAEGHHHHHH	not soluble
MGSDKIHHHHHHMLSTANITMQFGAKPLFENVSVKFGEGNRYGLIGANGCGKSTFMKILGGDLEPTSGQVMKDATTRLGKLSQDQFAFESERVIDTVIMGNTELWEVAAERERIYSQTEMSEEDGMKVADLEVRYAELDGYTAEARAGELLLGLGIPLVQHTQPMSVVAPGWKLRVLLAQALFSDPDVLLLDEPTNHLDINTIRWLEEILRSRSSTMLIISHDRHFLNRVCTHMADLDYGELTLFPGNYDEYMTAATQARERLHADNAKKKAEIAELQQFVSRFSANASKAKQATSRQRKIDKIQLDEVKPSSRVSPFIRFEQTKKIHRHALNAEKLSKAWGDNVLFERFDLQVEAGERVAIIGPNGIGKTTLLNCLVGTMTPDAGEVKWTDAAEVGYFAQDHADDFEGGETLFEWMRQWTTEGEQTVRGALGRMLFSNDDIGKSVKVISGGEQGRMLFGKLALQKPNVLVMDEPTNHLDMESIEALNLALENYPGTLIFVSHDREFVGSLATRIIELKDDDIVDFSGSYDDYLRSQSIYD	not soluble
MIMASSAAASISMITLRNLSRNHQSHQSTFLGFSRSFHNQRISSNSPGLSTRARSTTSSTGGFFRTICSSSSNDYSRPTKIQELNVYEFNEGDRNSPAVLKLGKKPDQLCLGDLVPFTNKLYTGDLTKRIGITAGLCVLIQHVPEKKGDRFEASYSFYFGDYGHISVQGPYLTYEDTFLAITGGSGVFEGAYGQVKLRQLVYPTKLFYTFYLKGVAADLPVELTGKHVEPSKEVKPAAEAQATQPGATIANFTN	soluble
MGSDKIHHHHHHMNEQIIEDLSSPWSGNTVHLVTVDGSQLIKKQYRKKEGYLREVHALRTVPQAICPSLVDAYEQLTYEPLQKNIQAADLDEIIGSLLRELHQHTVQKPSVFDPGNGVTKETWLDYLESFAPNWLQTIGTEKYESMYWSAINSVRAAYDRNQRALCLIHRDARLANVGEGSDGRFLFLDFELAIIGDPLWDVARYLIQSVHSETTFLKAYEFDHTEIEVLQAYKKLYAMSFMNYLIKNKQADTLDFKKCVNVLTN	not soluble
